Common to all, as to assay: SPR (Biacore T100), steady state; antibody immobilized, soluble receptor injected
Test [1] deals with soluble human FcγRIa (R&D Systems) (human) (UniProt P12314).
In test [2] the target is soluble human FcγRIIA^131R (human) (UniProt P12318).
Test [3] has as its target soluble human FcγRIIA^131H (human) (UniProt P12318).

Chain of UniProt P12314 (P12314 16-288 limits assumed): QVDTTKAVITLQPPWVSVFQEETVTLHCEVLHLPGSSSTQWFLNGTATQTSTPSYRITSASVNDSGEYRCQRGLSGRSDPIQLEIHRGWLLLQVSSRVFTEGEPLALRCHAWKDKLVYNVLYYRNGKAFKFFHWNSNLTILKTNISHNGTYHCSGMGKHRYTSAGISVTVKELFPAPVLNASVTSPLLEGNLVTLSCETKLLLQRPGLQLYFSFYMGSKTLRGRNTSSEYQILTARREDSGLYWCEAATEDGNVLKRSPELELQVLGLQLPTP

Broadly, the Kd is the constant that tells how readily two partners part at equilibrium. In the case of 4m5.3 hIgG1 S298G/T299A (antibody), the fold weakening of binding against wild type in test [1] was 10 fold. In test [2], this substance yielded a dissociation constant Kd of 1.7 µM and a fold stronger binding than wild-type Fc of 3 fold. The Kd in test [3] was determined as 7 µM.
